Five proteins from doi:10.1101/2024.08.16.608256 (bioRxiv, 2024) can be followed below.

This series concerns the molecule itself. In words: SDS-resistant dimer on SDS-PAGE with western blot.

B1: ΔN(30)-YqjD (domain or fragment, E. coli, UniProt P64581 31-101, looked up)
chain: KSKEELSKIRSKAEQALKQSRYRLGETGDAIAKQTRVAAARADEYVRENPWTGVGIGAAIGVVLGVLLSRR
For the protein B1, the binding result is “binds”.

B2: ΔN(12)-YqjD (domain or fragment, E. coli, UniProt P64581 13-101, looked up)
chain: ELKSLSDTLEEVLSSSGEKSKEELSKIRSKAEQALKQSRYRLGETGDAIAKQTRVAAARADEYVRENPWTGVGIGAAIGVVLGVLLSRR
As for B2, the binding result was “binds”.
With IAKQTRVAAARADEYVRENPWTGVGIGAAIGVVLGVLLSRR (domain or fragment, E. coli, UniProt P64581 61-101, looked up) [ΔN(60)-YqjD], the binding result is “binds”.

B3: YqjD (wild type, full-length, N-terminal Xpress-His6-tag) (natural protein, E. coli, UniProt P64581 1-101, looked up)
chain: MSKEHTTEHLRAELKSLSDTLEEVLSSSGEKSKEELSKIRSKAEQALKQSRYRLGETGDAIAKQTRVAAARADEYVRENPWTGVGIGAAIGVVLGVLLSRR
Regarding B3, the stoichiometry N (as a rule, the number of molecules, sites or subunits per partner or assembly) amounted to 2.

B4: ΔN(45)-YqjD (domain or fragment, E. coli, UniProt P64581 46-101, looked up)
chain: ALKQSRYRLGETGDAIAKQTRVAAARADEYVRENPWTGVGIGAAIGVVLGVLLSRR
Consider B4, for which the binding result was “binds”.
